Assay results from the supplement of paper PMC9170038.

How the values were obtained:
[1] = system: MS2 coat protein; experiment: apparent KD of MS2 coat protein; designed switch direction (-1 OFF switch, 1 ON switch): 1; higher = weaker reporter binding
Outline: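 Designed RNA switches with common flanks were transcribed on Illumina chips by stalled E. coli RNA polymerase and titrated with SNAP-549-labelled MS2 coat protein, from 0.7 or 1.5 nM doubling to 3 µM, in Tris-HCl pH 7.5 buffer with KCl, MgCl2, BSA, DTT, tRNA and Tween-20. Steps lasted 0.8–1.5 h (lowest) to 10–20 min (highest). Titrations ran without input, with 200 uM small-molecule ligand, or with an oligonucleotide input. Normalised cluster fluorescence was curve-fitted, and apparent KD is the per-design median over clusters.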

[2] = system: MS2 coat protein; experiment: apparent KD of MS2 coat protein; higher = weaker reporter binding; conditions: Eterna round: R107
Outline: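 With or without constant ligand, designed RNA switches in 100 mM Tris-HCl pH 7.5, 80 mM KCl and 4 mM MgCl2 were titrated with SNAP-549-labelled MS2 coat protein. Concentrations went up in twofold steps from 0.7 or 1.5 nM to 3 µM. The switches had been transcribed on-chip from Illumina sequencing clusters, and apparent KD is the per-design median of normalised cluster binding-curve fits.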

[3] = input ligand: microRNA oligo, concentration not stated
[4] = Eterna round: R95, input ligand: FMN 200 uM
[5] = Eterna round: R95, input ligand: microRNA oligo, concentration not stated
[6] = Eterna round: R95, input ligand: none
[7] = input ligand: theophylline 20 uM
[8] = input ligand: theophylline 2 mM
[9] = input ligand: tryptophan 2.4 mM

| Sequence | apparent KD of MS2 coat protein ([1]; input ligand: FMN 200 uM) [nM] | apparent KD of MS2 coat protein [1, 3] [nM] | apparent KD of MS2 coat protein ([1]; input ligand: none) [nM] | apparent KD of MS2 coat protein [1, 4] [nM] | apparent KD of MS2 coat protein [1, 5] [nM] | apparent KD of MS2 coat protein [1, 6] [nM] | apparent KD of MS2 coat protein ([2]; input ligand: arginine 13.2 mM) [nM] | apparent KD of MS2 coat protein ([2]; input ligand: none) [nM] | apparent KD of MS2 coat protein [2, 7] [nM] | apparent KD of MS2 coat protein [2, 8] [nM] | apparent KD of MS2 coat protein [2, 9] [nM] |
| --- | --- | --- | --- | --- | --- | --- | --- | --- | --- | --- | --- |
| AAAAAAAAGUCAGGAUAUGAAUGGAAAGUACAUGAGGAUCACCCAUGUUAUGGAAAAAAAAAACGUUAGAAGGGAUAAAAAAAA [AK SSNG2-V2-1] (Eterna round: R96, puzzle: Same State NG 2) | 61.3 | 90.2 | 62.3 | – | – | – | – | – | – | – | – |
| AAAAAACAUGAGGAUCACCCAUGUAAAAAAAUGGGAGGAUAUACAAAAACAAAAAAAAAAGUAGAAGGCCUGAAAA [same state 9] (Eterna round: R96, puzzle: Same State 1) | 59.2 | 478 | 520 | – | – | – | – | – | – | – | – |
| AAAAGAAGAAGUAAGGAUAUUCAAAAGAAAACAUGAGGAUCACCCAUGUACCAAAAGAAAGAAAAGAAGAAGGUACACAAGAAAA [Same State 2 #3] (puzzle: Same State 2) | – | – | – | 24.7 | 23.2 | 22.8 | – | – | – | – | – |
| AAAAGACAUGAGGAUCACCCAUGUAUGAAAAGUACAGGAUAUCACGCGCUAAAAUGCGAGUGAGAAGGGUGAAAAU [Oronen] (puzzle: Same State 1) | – | – | – | 4350 | 51.3 | 180 | – | – | – | – | – |
| AAAAUAAAUACAGGAUAUAGCCGCCUAAAGCGGCUAGAAGGGUAGAUCGAAAUACAUGAGGAUCACCCAUGUGCACGUAAGUGC [Eresesgeti] (Eterna round: R96, puzzle: Same State NG 1) | 775 | 527 | 1350 | – | – | – | – | – | – | – | – |
| AAAAUCUACGAAAGUAGAACAAGCUUAAGACAUGAGGAUCACCCAUGUCAUGUCUUAAAACAUGAGGAAACUCAUGA [hsa-mir-208a sensor: 17] (Eterna round: R96, puzzle: Sensor for hsa-mir-208a) | 273 | 182 | 252 | – | – | – | – | – | – | – | – |
| AAAAUUGAAUUACAUCUGCUCGUCAUACAACAUGAGGAUCACCCAUGUAACAUCAAACAACCAACCAAACACAAAUC [Ceeslage] (Eterna round: R96, puzzle: Sensor for hsa-mir-208a) | 20.1 | 17.5 | 22.3 | – | – | – | – | – | – | – | – |
| AAACGCAGCAUAUCGCUGCGACAUGAGGAUCACCCAUGUACACAGGAUAUCGCAGCAUACCGCCGCGAGAAGGGUGAUCAAGAC [Anonlete] (Eterna round: R96, puzzle: Same State NG 3) | 99.3 | 16.3 | 33.9 | – | – | – | – | – | – | – | – |
| AAAGAACAUGAGGAUCACCCAUGUGGAAGAGGCACAGGAUAUCACCUCGCAAGUGCAAGGUGAGAAGGGUGAUGAU [Islaonen] (puzzle: Same State 1) | – | – | – | 123 | 425 | 205 | – | – | – | – | – |
| UGUGCAUGAGUUGGAAAAGCUCAUGGGCAUCGAGGACCGGUACGGCCGCCACUCGGCUGUACAUGAGGAUCACCCAUGUCAGGGU [#1 Same State - Tryptophan A Attempt #23 (HarryS)] | – | – | – | – | – | – | 82 | 288 | 141 | 170 | 891 |
| UUAAUCAUAUUAGAAAACUAAUAUGCAGAAGGAGCGUGAUAAAACACAGGUAGGUCGCUGAAGGGAACAUGAGGAUCACCCAUGU [AstrosSSArgA#8] | – | – | – | – | – | – | 26.5 | 25.7 | 32.7 | 33 | 26 |
| UUAAUCUAUAAUGAAAACAUUAUAGCAGAAGGAGCGUGAUAAAACACAGGUAGGUCGCUGAAGGGAACAUGAGGAUCACCCAUGU [AstrosSSArgA#12] | – | – | – | – | – | – | 24.3 | 28.7 | 40.5 | 39.4 | 23.6 |
| UUAAUCUUGGAUGAAAACAUUUAAGCAGAAGGAGCGUGAUAAAACACAGGUAGGUCGCUGAAGGGAACAUGAGGAUCACCCAUGU [AstrosSSArgA#15] | – | – | – | – | – | – | 22.5 | 38 | 28.8 | 31.7 | 32.9 |
| UUAAUCUUUAUUGAAAACAAUAAAGCAGAAGGAGCGUGAUAAAACACAGGUAGGUCGCUGAAGGGAACAUGAGGAUCACCCAUGU [AstrosSSArgA#13] | – | – | – | – | – | – | 36.4 | 26.6 | 32 | 35.1 | 24.1 |
| UUAAUGAUAUAUCAUAUGAUAUAUCCAGAAGGAGCGUCAUAAAUGGCAGGUAGGUCGCUGAAGGCAACAUGAGGAUCACCCAUGU [#16 Same State - Arginine A] | – | – | – | – | – | – | 20.1 | 28.6 | 44.6 | 32.6 | 24.4 |
| UUAGUAACGACGGCCGCCACUGAUUUUGGACAUGAGGAUCACCCAUGUAAAGAUCCUAGAAUGGUCAGGACCGGGUCUGAUAAUG [Exclusion Tryptophane B GF4] | – | – | – | – | – | – | 35 | 35.3 | 40 | 54 | 64.4 |
| UUAUAUAUACAUGAGGAUCACCCAUGUGAUACCAGCCUGGAAACAGGCCCUUGGCAGCACAAAUACUCCAGAAAAUAUAAUAAAU [MAT - Exclusion Theophlline A - Mod of Eli - D4] | – | – | – | – | – | – | 26.1 | – | 56.8 | – | 27.8 |

| Sequence | apparent KD of MS2 coat protein ([1]; input ligand: FMN 200 uM) [nM] | apparent KD of MS2 coat protein [1, 3] [nM] | apparent KD of MS2 coat protein ([1]; input ligand: none) [nM] | apparent KD of MS2 coat protein [1, 4] [nM] | apparent KD of MS2 coat protein [1, 5] [nM] | apparent KD of MS2 coat protein [1, 6] [nM] | apparent KD of MS2 coat protein ([2]; input ligand: arginine 13.2 mM) [nM] | apparent KD of MS2 coat protein ([2]; input ligand: none) [nM] | apparent KD of MS2 coat protein [2, 7] [nM] | apparent KD of MS2 coat protein [2, 8] [nM] | apparent KD of MS2 coat protein [2, 9] [nM] |
| --- | --- | --- | --- | --- | --- | --- | --- | --- | --- | --- | --- |
| UUAUUUAUAAAUGAUACCAGCCGAUUGGCCGCAAAUCCUAACAUGAGGAUCACCCAUGUCGGCCCUUGGCAGCAUUUAUGGGUUU [XTheo B #28] | – | – | – | – | – | – | 56 | – | 134 | – | 65.1 |
| UUAUUUAUAAUGGAUACCAGUUUAAUGGCCGCAAAUCCUGACAUGAGGAUCACCCAUGUAAGCCCUUGGCAGCUGUUAUGGGUUU [XTheo B #24] | – | – | – | – | – | – | 34.2 | – | 47.3 | – | 35.2 |
| UUAUUUAUAGGGUAUAUCAGAUUAACUGAAGGAGCGUGGUAAUUCACAGGUAGGUCGCAGAUGGAACAUGAGGAUCACCCAUGUU [JR_ExcArginiA_Sub015] | – | – | – | – | – | – | 18.2 | 19.2 | 28.5 | 22.2 | 20.8 |
| UUCGUUUGCGGAAGGAGCGACGGACAUCGGUGAACGACGGACAUGAGGAUCACCCAUGUACGUCAGGUAGGUCGCCGCUAAGAGU [Enbiceri] | – | – | – | – | – | – | 13.7 | 13.2 | 13.8 | 15.2 | 13.8 |
| UUCUGGUCCCGUGAUACCAGAGACAUGAGGAUCACCCAUGUACAUGAGGAUCACCCAUGUUUCCCUUGGCAGCACUGCAGUGAGC [Exclusion Theophylline B GF 15] | – | – | – | – | – | – | 56 | 261 | 160 | 332 | 147 |
| UUCUUUAAGUCGGCCGCCACUGAAACAUGAGGAUCACCCAUGUAAAUUUGGGAGUAGGUAUAUUACAGGACCGGGACUAUAGUAA [JR_ExcTryptoB_Sub021] | – | – | – | – | – | – | 29.2 | – | 31.2 | 27.3 | – |
| UUCUUUGACGAUCUGGGUUUACCAGAUCGACGAGGACCGGUACGGCCGCCACUCGUGUUUUCUUUACAUGAGGAUCACCCAUGUU [#16Tryptophan A Same State] | – | – | – | – | – | – | 16.2 | – | 22.6 | 19.1 | – |
| UUGACAUGAGGAUCACCCAUGUAAACUGAAGGAGCGUCGAAAAUGACAGGUAGGUCGCAGAAUAAUAAUGGUGAUCGUAAAUAUU [#12 Exclusion - Arginine A] | – | – | – | – | – | – | 42.6 | 79 | 79.9 | 83.9 | 63 |
| UUGGAUGAAGGAGUGAAAAGCAACUCAGAUACCAGUCUGAGUAAUGACCCUUGGCAGCUGAGAACAUGAGGAUCACCCAUGUGAC [theeternabot_exclusion_MS2_Theo_A_34] | – | – | – | – | – | – | 11.7 | – | 15.5 | – | 17.1 |
| UUGGGUUUGUGAAGGAGCGGGAAUGUUUUAUAGUGGAUCCUAACAUGAGGAUCACCCAUGUCCCAGGUAGGUCGCGCGGGUUUGG [12.S] | – | – | – | – | – | – | 40.1 | 64.8 | 100 | 79.9 | 55.5 |
| UUGUGUUUAUUGGUUUAGCUAUUAUGGUUGCGAGGACCGGUACGGCCGCCACUCGAUGGAACAUGAGGAUCACCCAUGUGAGGAA [JR_ExcTryptoA_Sub013] | – | – | – | – | – | – | 14.7 | 28 | 31.8 | 33.9 | 22.1 |
| UUGUUGUUUGGAAGGAGCGUGGAUGAGUUAGAACAUGAGGAUCACCCAUGUUGGAUGAUACCACAGGUAGGUCGCCGGGUGGUGG [11.Z] | – | – | – | – | – | – | 229 | 16.6 | 48.8 | 24.5 | 21.4 |
| UUUAAUUUAAUAGAUACCAGCUAAUAAUAAUCCCGGAGGACAUGAGGAUCACCCAUGUGGAGCCCUUGGCAGCUAAAAUAAAUUU [Exclusion - Theophylline B] | – | – | – | – | – | – | 20.1 | 32.9 | 63.7 | 22.4 | 28.9 |
| UUUGAUAUGACAGAUACCAGCGUGUUGUUGAACAUGAGGAUCACCCAUGUAGUGAUCAAGCGCCCUUGGCAGCUGGUGUGUUAGG [7.P] | – | – | – | – | – | – | 55.5 | – | 323 | – | 158 |
| UUUUAAAGCAUGGCGUAUCGGAAAACCGAUACCAGUACAGAAAUGUACCCUUGGCAGCGGAAUUUUACAUGAGGAUCACCCAUGU [Ex Theophylline A 1] | – | – | – | – | – | – | 14.9 | – | 19.7 | – | 12.7 |
| UUUUUUUUGGGAAGGAGCGGGAACAUGUGGAUCUCCCAUGUACAUGAGGAUCACCCAUGUACCCAGGUAGGUCGCCCAUUUUUUU [Exclusion - Arginine B] | – | – | – | – | – | – | 69.5 | 102 | 94.7 | 112 | 66.2 |
| UUUUUUUUGGGAAGGAGCGGGAACAUGUGGAUCUCCCAUGUACAUGAGGAUCACCCAUGUACCCAGGUAGGUCGCUCAUUUUUUU [Exclusion - Arginine B] | – | – | – | – | – | – | 28.4 | 25.8 | 38.6 | 37.8 | 26 |
